Measured values as given in the supplement of paper PMC10065799, “High-throughput profiling of sequence recognition by tyrosine kinases and SH2 domains using bacterial peptide display” (eLife, 2023).

Biological target: FGFR3 (UniProt P22607)
Assay: phosphorylation enrichment, bacterial display (enrichment ratio); higher = better substrate or ligand; peptides without Tyr show the background
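Also: 11-residue human phosphosite peptides and single-mutation variants displayed on the E. coli surface, counted by deep sequencing, each peptide's frequency after selection divided by its frequency in the unselected input library; frequency after pTyr selection over input frequency; kinase dosed for 20-30% of maximal phosphorylation in three min.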

Sequence of FGFR3 (P22607 whole entry, looked up): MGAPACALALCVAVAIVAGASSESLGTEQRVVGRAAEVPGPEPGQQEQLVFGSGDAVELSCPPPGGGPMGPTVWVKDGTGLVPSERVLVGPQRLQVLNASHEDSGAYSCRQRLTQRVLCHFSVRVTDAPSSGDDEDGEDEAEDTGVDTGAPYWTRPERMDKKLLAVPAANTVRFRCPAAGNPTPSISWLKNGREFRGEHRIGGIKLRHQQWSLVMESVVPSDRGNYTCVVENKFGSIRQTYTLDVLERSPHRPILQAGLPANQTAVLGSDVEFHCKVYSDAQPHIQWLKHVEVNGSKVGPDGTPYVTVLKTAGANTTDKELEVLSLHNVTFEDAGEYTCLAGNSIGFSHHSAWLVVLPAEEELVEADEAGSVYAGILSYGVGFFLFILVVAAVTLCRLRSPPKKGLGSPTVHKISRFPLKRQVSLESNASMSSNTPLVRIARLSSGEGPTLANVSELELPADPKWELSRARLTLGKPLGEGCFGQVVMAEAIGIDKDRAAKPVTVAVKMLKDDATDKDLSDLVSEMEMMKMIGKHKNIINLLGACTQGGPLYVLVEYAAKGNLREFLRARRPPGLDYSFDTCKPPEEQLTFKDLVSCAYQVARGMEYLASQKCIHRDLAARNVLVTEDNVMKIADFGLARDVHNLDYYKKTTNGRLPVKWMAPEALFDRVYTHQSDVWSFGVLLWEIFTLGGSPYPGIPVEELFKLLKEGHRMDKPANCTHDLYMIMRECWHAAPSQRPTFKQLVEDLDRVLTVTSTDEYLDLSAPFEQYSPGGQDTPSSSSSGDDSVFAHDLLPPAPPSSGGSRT

| Sequence | phosphorylation enrichment |
| --- | --- |
| SEASGYQDNIA [DES_Y363] | 0.674 |
| NPQKSYFIHLF [WAS_Y83_R86H_YF] | 0.73 |
| KWHREYNFKFV [RICTOR_Y835_S837F_YF] | 0.585 |
| RRAKGYPIYLY [ITGB2_Y125_D128Y] | 1.18 |
| SVTRTYSPALN [TP53_Y126_C124R] | 0.418 |
| FPRTGYSVPFG [TGM1_Y370_L366P_YF] | 0.513 |
| QAQMDYRRWQP [MPL_Y591_L594W] | 0.491 |
| RLIEGYTGPFK [ZNF862_Y181] | 1.29 |
| TEFIQYVRRKN [MAX_Y73_M74V_YF] | 0.653 |
| NPQKSYLIRLY [WAS_Y83_F84L] | 0.65 |
| PFTRNYYVRAV [CYBA_Y87] | 0.792 |
| SLTCTYSPALN [TP53_Y126_V122L] | 1.21 |
| YFRDGCMPRQY [GSS_Y270_Y270C] | 0.883 |
| RHLREYPDLLN [DES_Y388_Q389P] | 0.71 |
| IGNGFYFHVFS [MYBPC3_Y1136_R1138H_YF] | 0.757 |
| DRLAVYIDRVP [LMNA_Y45_R50P] | 0.731 |
| DRLASYSDKVR [KRT10_Y160_L161S] | 0.419 |

| Sequence | phosphorylation enrichment |
| --- | --- |
| RVYRDYVLKSA [HTATIP2_Y111_D108Y] | 0.825 |
| RLLVVYPRTQR [HBB_Y36_W38R] | 0.525 |
| FAELVYTVFWH [ASS1_Y322_G324V] | 3.34 |
| ELQDDYEDMME [SLC4A1_Y8] | 0.718 |
| DEEDTYTMPST [PTK2_Y407] | 0.776 |
| AIDVGYRHIDC [AKR1B1_Y40] | 0.622 |
| LLTKVYVVEGS [ZMPSTE24_Y253_P248L] | 1.23 |
| YEHVGYTTLNR [CHN1_Y148] | 0.597 |
| KAWTIYHPEDS [ZBP1_Y165_R166H] | 0.787 |
| NYGTNYRVGSS [CPO_Y278_K273N] | 0.389 |
| VSSIPYGQPKQ [NEU1_Y251_G248S] | 0.41 |
| PVQAAYEKVVA [HBB_Y131_Q132E] | 0.699 |
| HFGCVYLGTLL [MET_Y1093_H1094L] | 1.67 |
| RHLREYQDLLI [DES_Y388_N393I] | 0.813 |
| SDRNLYSKNLV [CFAP58_Y501] | 0.363 |
| HNQDGYSYPSR [LDLR_Y845] | 0.886 |

Test system: Fer (mouse)
Assay: as above

| Sequence | phosphorylation enrichment |
| --- | --- |
| SEASGYQDNIA [DES_Y363] | 0.551 |
| NPQKSYFIHLF [WAS_Y83_R86H_YF] | 0.449 |
| KWHREYNFKFV [RICTOR_Y835_S837F_YF] | 0.622 |
| RRAKGYPIYLY [ITGB2_Y125_D128Y] | 0.652 |
| SVTRTYSPALN [TP53_Y126_C124R] | 0.485 |
| FPRTGYSVPFG [TGM1_Y370_L366P_YF] | 0.421 |
| QAQMDYRRWQP [MPL_Y591_L594W] | 0.49 |
| RLIEGYTGPFK [ZNF862_Y181] | 1.21 |
| TEFIQYVRRKN [MAX_Y73_M74V_YF] | 0.483 |
| NPQKSYLIRLY [WAS_Y83_F84L] | 0.395 |
| PFTRNYYVRAV [CYBA_Y87] | 0.422 |
| SLTCTYSPALN [TP53_Y126_V122L] | 0.696 |
| YFRDGCMPRQY [GSS_Y270_Y270C] | 0.505 |
| RHLREYPDLLN [DES_Y388_Q389P] | 0.352 |
| IGNGFYFHVFS [MYBPC3_Y1136_R1138H_YF] | 0.449 |
| DRLAVYIDRVP [LMNA_Y45_R50P] | 0.437 |
| DRLASYSDKVR [KRT10_Y160_L161S] | 0.322 |

| Sequence | phosphorylation enrichment |
| --- | --- |
| RVYRDYVLKSA [HTATIP2_Y111_D108Y] | 0.493 |
| RLLVVYPRTQR [HBB_Y36_W38R] | 0.619 |
| FAELVYTVFWH [ASS1_Y322_G324V] | 6.19 |
| ELQDDYEDMME [SLC4A1_Y8] | 0.549 |
| DEEDTYTMPST [PTK2_Y407] | 0.691 |
| AIDVGYRHIDC [AKR1B1_Y40] | 0.44 |
| LLTKVYVVEGS [ZMPSTE24_Y253_P248L] | 0.819 |
| YEHVGYTTLNR [CHN1_Y148] | 4.18 |
| KAWTIYHPEDS [ZBP1_Y165_R166H] | 0.482 |
| NYGTNYRVGSS [CPO_Y278_K273N] | 0.719 |
| VSSIPYGQPKQ [NEU1_Y251_G248S] | 0.324 |
| PVQAAYEKVVA [HBB_Y131_Q132E] | 0.958 |
| HFGCVYLGTLL [MET_Y1093_H1094L] | 0.923 |
| RHLREYQDLLI [DES_Y388_N393I] | 0.636 |
| SDRNLYSKNLV [CFAP58_Y501] | 1.03 |
| HNQDGYSYPSR [LDLR_Y845] | 0.738 |

Biological target: Fes (UniProt P07332)
Assay: as above

Sequence of Fes (P07332 whole entry, looked up): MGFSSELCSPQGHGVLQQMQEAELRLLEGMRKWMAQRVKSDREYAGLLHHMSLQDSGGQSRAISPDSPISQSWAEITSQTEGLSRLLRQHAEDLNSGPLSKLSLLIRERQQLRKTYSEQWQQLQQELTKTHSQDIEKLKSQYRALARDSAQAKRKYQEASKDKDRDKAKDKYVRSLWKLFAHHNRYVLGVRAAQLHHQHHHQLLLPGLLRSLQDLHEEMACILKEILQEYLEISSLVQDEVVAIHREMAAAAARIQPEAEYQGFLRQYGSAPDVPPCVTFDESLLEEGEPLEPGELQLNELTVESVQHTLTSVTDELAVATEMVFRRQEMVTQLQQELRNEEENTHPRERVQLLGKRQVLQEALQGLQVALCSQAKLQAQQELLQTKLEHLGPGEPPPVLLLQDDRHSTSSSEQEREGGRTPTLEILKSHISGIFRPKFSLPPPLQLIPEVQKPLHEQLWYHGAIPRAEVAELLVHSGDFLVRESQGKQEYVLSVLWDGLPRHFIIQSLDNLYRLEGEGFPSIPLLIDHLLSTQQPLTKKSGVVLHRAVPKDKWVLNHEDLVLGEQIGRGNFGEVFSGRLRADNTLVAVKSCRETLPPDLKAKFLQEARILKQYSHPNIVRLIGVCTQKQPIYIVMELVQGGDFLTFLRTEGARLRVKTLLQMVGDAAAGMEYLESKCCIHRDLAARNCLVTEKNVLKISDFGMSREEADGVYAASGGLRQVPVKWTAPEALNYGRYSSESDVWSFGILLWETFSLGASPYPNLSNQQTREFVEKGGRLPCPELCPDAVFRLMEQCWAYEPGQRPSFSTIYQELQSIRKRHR

| Sequence | phosphorylation enrichment |
| --- | --- |
| SEASGYQDNIA [DES_Y363] | 0.94 |
| NPQKSYFIHLF [WAS_Y83_R86H_YF] | 1.32 |
| KWHREYNFKFV [RICTOR_Y835_S837F_YF] | 0.944 |
| RRAKGYPIYLY [ITGB2_Y125_D128Y] | 0.922 |
| SVTRTYSPALN [TP53_Y126_C124R] | 0.522 |
| FPRTGYSVPFG [TGM1_Y370_L366P_YF] | 0.709 |
| QAQMDYRRWQP [MPL_Y591_L594W] | 0.795 |
| RLIEGYTGPFK [ZNF862_Y181] | 1.75 |
| TEFIQYVRRKN [MAX_Y73_M74V_YF] | 0.626 |
| NPQKSYLIRLY [WAS_Y83_F84L] | 0.989 |
| PFTRNYYVRAV [CYBA_Y87] | 1.29 |
| SLTCTYSPALN [TP53_Y126_V122L] | 1.81 |
| YFRDGCMPRQY [GSS_Y270_Y270C] | 0.948 |
| RHLREYPDLLN [DES_Y388_Q389P] | 0.822 |
| IGNGFYFHVFS [MYBPC3_Y1136_R1138H_YF] | 1.31 |
| DRLAVYIDRVP [LMNA_Y45_R50P] | 1.09 |
| DRLASYSDKVR [KRT10_Y160_L161S] | 0.553 |

| Sequence | phosphorylation enrichment |
| --- | --- |
| RVYRDYVLKSA [HTATIP2_Y111_D108Y] | 1.05 |
| RLLVVYPRTQR [HBB_Y36_W38R] | 1.28 |
| FAELVYTVFWH [ASS1_Y322_G324V] | 1.63 |
| ELQDDYEDMME [SLC4A1_Y8] | 1.07 |
| DEEDTYTMPST [PTK2_Y407] | 1.29 |
| AIDVGYRHIDC [AKR1B1_Y40] | 0.844 |
| LLTKVYVVEGS [ZMPSTE24_Y253_P248L] | 2 |
| YEHVGYTTLNR [CHN1_Y148] | 0.658 |
| KAWTIYHPEDS [ZBP1_Y165_R166H] | 1.02 |
| NYGTNYRVGSS [CPO_Y278_K273N] | 0.503 |
| VSSIPYGQPKQ [NEU1_Y251_G248S] | 0.605 |
| PVQAAYEKVVA [HBB_Y131_Q132E] | 1.02 |
| HFGCVYLGTLL [MET_Y1093_H1094L] | 2.24 |
| RHLREYQDLLI [DES_Y388_N393I] | 1.21 |
| SDRNLYSKNLV [CFAP58_Y501] | 0.516 |
| HNQDGYSYPSR [LDLR_Y845] | 0.826 |

Biological target: Fyn (UniProt P06241)
Assay: as above

Sequence of Fyn (P06241 whole entry, looked up): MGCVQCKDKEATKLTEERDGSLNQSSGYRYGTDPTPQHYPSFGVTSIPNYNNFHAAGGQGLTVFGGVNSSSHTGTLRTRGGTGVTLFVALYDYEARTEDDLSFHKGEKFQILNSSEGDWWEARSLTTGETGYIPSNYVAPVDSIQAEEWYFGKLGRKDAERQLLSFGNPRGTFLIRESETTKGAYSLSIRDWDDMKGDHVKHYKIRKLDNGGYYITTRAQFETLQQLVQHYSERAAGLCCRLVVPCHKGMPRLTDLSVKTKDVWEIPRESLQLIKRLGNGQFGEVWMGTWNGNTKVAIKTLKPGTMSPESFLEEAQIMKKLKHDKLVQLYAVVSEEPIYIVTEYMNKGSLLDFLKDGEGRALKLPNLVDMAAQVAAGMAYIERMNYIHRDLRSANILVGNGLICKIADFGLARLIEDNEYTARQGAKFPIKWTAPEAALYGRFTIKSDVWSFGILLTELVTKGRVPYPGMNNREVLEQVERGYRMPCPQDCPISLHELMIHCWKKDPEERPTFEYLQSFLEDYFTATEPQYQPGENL

| Sequence | phosphorylation enrichment |
| --- | --- |
| SEASGYQDNIA [DES_Y363] | 0.384 |
| NPQKSYFIHLF [WAS_Y83_R86H_YF] | 0.396 |
| KWHREYNFKFV [RICTOR_Y835_S837F_YF] | 0.372 |
| RRAKGYPIYLY [ITGB2_Y125_D128Y] | 0.684 |
| SVTRTYSPALN [TP53_Y126_C124R] | 0.384 |
| FPRTGYSVPFG [TGM1_Y370_L366P_YF] | 0.475 |
| QAQMDYRRWQP [MPL_Y591_L594W] | 0.461 |
| RLIEGYTGPFK [ZNF862_Y181] | 1.1 |
| TEFIQYVRRKN [MAX_Y73_M74V_YF] | 0.675 |
| NPQKSYLIRLY [WAS_Y83_F84L] | 0.408 |
| PFTRNYYVRAV [CYBA_Y87] | 0.614 |
| SLTCTYSPALN [TP53_Y126_V122L] | 0.797 |
| YFRDGCMPRQY [GSS_Y270_Y270C] | 0.43 |
| RHLREYPDLLN [DES_Y388_Q389P] | 0.389 |
| IGNGFYFHVFS [MYBPC3_Y1136_R1138H_YF] | 0.4 |
| DRLAVYIDRVP [LMNA_Y45_R50P] | 0.429 |
| DRLASYSDKVR [KRT10_Y160_L161S] | 0.41 |

| Sequence | phosphorylation enrichment |
| --- | --- |
| RVYRDYVLKSA [HTATIP2_Y111_D108Y] | 0.645 |
| RLLVVYPRTQR [HBB_Y36_W38R] | 0.785 |
| FAELVYTVFWH [ASS1_Y322_G324V] | 7.64 |
| ELQDDYEDMME [SLC4A1_Y8] | 0.542 |
| DEEDTYTMPST [PTK2_Y407] | 3.77 |
| AIDVGYRHIDC [AKR1B1_Y40] | 0.466 |
| LLTKVYVVEGS [ZMPSTE24_Y253_P248L] | 0.586 |
| YEHVGYTTLNR [CHN1_Y148] | 0.657 |
| KAWTIYHPEDS [ZBP1_Y165_R166H] | 0.646 |
| NYGTNYRVGSS [CPO_Y278_K273N] | 0.463 |
| VSSIPYGQPKQ [NEU1_Y251_G248S] | 0.338 |
| PVQAAYEKVVA [HBB_Y131_Q132E] | 0.88 |
| HFGCVYLGTLL [MET_Y1093_H1094L] | 0.897 |
| RHLREYQDLLI [DES_Y388_N393I] | 0.655 |
| SDRNLYSKNLV [CFAP58_Y501] | 0.411 |
| HNQDGYSYPSR [LDLR_Y845] | 0.836 |
